Measured values: patent publication US20240084044A1, “Heteromultivalent Nucleic Acid Scaffolds and Uses Thereof” (George Mason University, priority 2022, published 2024)
Bridges are numbered along the chain shown (N, C = ends). Roman numbers before positions name the chains, in order.

Target: T1, IL-1RAcP/ST2/IL-33 ternary complex (Homo sapiens, UniProt O95760+Q01638)
T1 construct: included the extracellular domains, K19-F328 and S21-E359, respectively; the cleaved mature proteins, S112-T270, A117-S269, and R2-S310, respectively; purchased Sino Biologicals ST2 10105-HCCH; IL1RAcP 10121-H08H; IL-33 10368-HNAE; host or cells: ST2 and IL1RAcP: HEK293; IL-33: E. coli
T1 sequence (Q01638 19-328 isoform Q01638-2): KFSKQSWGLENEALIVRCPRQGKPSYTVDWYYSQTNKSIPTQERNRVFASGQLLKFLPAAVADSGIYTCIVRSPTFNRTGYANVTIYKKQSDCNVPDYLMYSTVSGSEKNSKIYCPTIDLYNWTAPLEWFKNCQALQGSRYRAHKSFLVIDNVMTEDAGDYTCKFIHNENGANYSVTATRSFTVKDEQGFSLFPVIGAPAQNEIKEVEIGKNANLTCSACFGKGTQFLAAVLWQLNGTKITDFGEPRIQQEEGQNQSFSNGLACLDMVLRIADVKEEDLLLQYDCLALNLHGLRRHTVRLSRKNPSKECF
T1 sequence (O95760 112-270): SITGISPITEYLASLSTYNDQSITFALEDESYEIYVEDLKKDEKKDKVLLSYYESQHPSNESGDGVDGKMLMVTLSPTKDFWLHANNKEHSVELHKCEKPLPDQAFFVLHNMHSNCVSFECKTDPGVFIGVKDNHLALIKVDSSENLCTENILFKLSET
Test: Crosslinking assay of ternary complex (trimer) formation with recombinant IL-33, ST2 and IL-1RAcP
Type: biochemical
Experimental: MSTOP dose curves were performed with a crosslinking assay. Recombinant IL-33, ST2, and IL-1RAcP were combined as described above and incubated at RT for 30 m in PBS or treated with 10 μM of 3WJ scaffold, WT peptides, or MSTOP in a dose range of 10 μM to 1 nM (1:10 serial dilution). Following incubation, 1 μL of 2.5 mM Disuccinimidyl suberate (DSS, 83 μM) homobifunctional crosslinker was added and reactions were incubated for […] at RT., then quenched with 1 μL of 1 M Tris-HCl. Samples were then prepared for electrophoresis.
The native receptor has a KD value of 10 μM illustrative of the fact that the interaction is weak and transient (FIG. 3A). […] The prototype MSTOP was finally assessed for bioactivity via prevention of IL-33/ST2 signaling activation. The MSTOP was first tested in vitro with recombinant ST2, IL-33, and IL-1RAcP incubated together in its endogenous 1:1:1 stoichiometry for 30 minutes. Reactions were then treated with DSS homobifunctional NETS-based crosslinker (final concentration ˜85 μM) to tether formed trimers. Trimer resolved at the predicted 120 kDa in semi-native conditions, while unbound IL-1RAcP resolved at 50 kDa. Quantification of IL-1RAcP at 120 kDa was normalized against total lane IL-1RAcP input, with the untreated trimer control representing 100% trimerization. […]

MSTOP: 3WJ DNA scaffold whose three DBCO staple strands carry cyclized azidolysine IL-1RAcP hotspot peptides; decoy for IL-33/ST2 (peptide 1 Ac-CKEYGIQRITC-NH2; peptide 2 Ac-AKVGSPKNAVPPC-NH2; peptide 3 Ac-CKGEVAKAAKVKC-NH2; disulfide I:1-I:11, III:1-III:13; thioether II:1-II:13; not fully specified (some residues); also: three peptides held on a 3-way junction DNA scaffold via DBCO staple strands)
reduction of trimer formation (1 μM treatment): approximately 40%
reduction in trimer formation (10 μM treatment, DSS crosslinking western blot): 70%
